# Measurements as given in US20130052712.
# Tested on: mussel adhesive protein fp-151
# Sequence (chain, as listed by the source): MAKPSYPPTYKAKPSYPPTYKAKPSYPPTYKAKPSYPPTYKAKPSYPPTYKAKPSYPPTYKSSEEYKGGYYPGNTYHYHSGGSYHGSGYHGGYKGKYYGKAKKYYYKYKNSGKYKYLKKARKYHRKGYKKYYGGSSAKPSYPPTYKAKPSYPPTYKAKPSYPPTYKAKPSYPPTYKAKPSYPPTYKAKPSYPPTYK
substance,measurement,value
alkaline phosphatase,"activity of alkaline phosphatase remaining on the nanofiber (conversion of pNPP, absorbance at 405 nm)",alkaline phosphatase is coated only on PCL/fp-151 nanofiber to exhibit the activity
